Data as given in US20150329642A1 (Genmab, published 2015).

How the values were obtained:
[1] = biological target: T1, human c-Met, membrane-bound on cells (human, UniProt P08581 25-1390); assay: flow cytometry on A431 cells (PE goat anti-human IgG); bottom panel
T1 construct: whole, on cells; A431 cells carry on average 30,000 copies of c-Met per cell (Qifi); also called c-Met expressed on A431 cells; c-Met on A549 cells
Procedure: (§1) The binding of anti-c-Met antibodies and monovalent forms thereof (also termed “UniBody molecules” herein, see Example 5) to A431 cells expressing membrane-bound c-Met (purchased at ATCC, CRL-1555) was tested using flow cytometry (FACS Canto II, BD Biosciences). […] Binding of anti-c-Met antibodies and UniBody molecules was detected using a Phycoerythrin-conjugated goat-anti-human IgG antibody (Jackson). IgG1-5D5 was used as positive control antibody, and HuMab-KLH was used as isotype control antibody. EC₅₀ values were determined by means of non-linear regression (sigmoidal dose-response with variable slope) using GraphPad Prism V4.03 software (GraphPad Software, San Diego, Calif., USA).
(§2) Also maximum binding levels were unchanged between IgG1's and UniBody molecules. For antibodies 005, 006, 008, 035, 045 and 058, on the other hand, a more than 2-fold […] as well as a decrease in maximum binding level was observed when comparing IgG1 with their UniBody counterpart. This was most likely due to the […] (Kd) of these antibodies (see Example 14).

[2] = biological target: T1, human c-Met, membrane-bound on cells; assay: flow cytometry on A431 cells
Procedure: as §1, §2

[3] = biological target: T2, rhHGF R/Fc Chimera (R&D Systems; Cat.358MT/CF) (human, UniProt P08581 25-932); assay: ELISA on coated rhHGF R/Fc Chimera
T2 construct: Bought reagent; Fc part of the bought chimera not given; not described
Procedure: c-Met binding properties of the mutants were tested in an ELISA. ELISA plate wells were coated overnight at 4° C. with rhHGF R/Fc Chimera (R&D Systems; Cat.358MT/CF) in PBS (1 μg/mL). Next, the wells were washed with PBST (PBS supplemented with 0.05% Tween-20 [Sigma-Aldrich, Zwijndrecht, The Netherlands]) and blocked for one hour at room temperature (RT) with PBSTC (PBST supplemented 2% [v/v] chicken serum [Gibco, Paisley, Scotland]). Subsequently, the wells were washed with PBST and incubated for one hour at RT with the anti-cMet antibodies and variants serially diluted in PBSTC (10 μg/mL in 4-fold dilutions). […] After washing, the reaction was visualized by a 15 min incubation with 2,2′-azino-bis(3-ethylbenzothiazoline-6-sulfonic acid) (ABTS: dilute one ABTS tablet in 50 mL ABTS buffer [Roche Diagnostics, Almere, The Netherlands]) at RT protected from light. The colorization was stopped by adding an equal volume of oxalic acid (Sigma-Aldrich, Zwijndrecht, The Netherlands). […] at 405 nm was measured on a microtiter plate reader (Biotek Instruments, Winooski, USA).

[4] = biological target: T1, human c-Met, membrane-bound on cells; assay: flow cytometry on A431 cells (PE goat anti-human IgG); third panel
Procedure: as §1, §2

[5] = biological target: T1, human c-Met, membrane-bound on cells; assay: flow cytometry on A431 cells (PE goat anti-human IgG); second panel
Procedure: as §1, §2

T1 sequence (P08581 25-1390): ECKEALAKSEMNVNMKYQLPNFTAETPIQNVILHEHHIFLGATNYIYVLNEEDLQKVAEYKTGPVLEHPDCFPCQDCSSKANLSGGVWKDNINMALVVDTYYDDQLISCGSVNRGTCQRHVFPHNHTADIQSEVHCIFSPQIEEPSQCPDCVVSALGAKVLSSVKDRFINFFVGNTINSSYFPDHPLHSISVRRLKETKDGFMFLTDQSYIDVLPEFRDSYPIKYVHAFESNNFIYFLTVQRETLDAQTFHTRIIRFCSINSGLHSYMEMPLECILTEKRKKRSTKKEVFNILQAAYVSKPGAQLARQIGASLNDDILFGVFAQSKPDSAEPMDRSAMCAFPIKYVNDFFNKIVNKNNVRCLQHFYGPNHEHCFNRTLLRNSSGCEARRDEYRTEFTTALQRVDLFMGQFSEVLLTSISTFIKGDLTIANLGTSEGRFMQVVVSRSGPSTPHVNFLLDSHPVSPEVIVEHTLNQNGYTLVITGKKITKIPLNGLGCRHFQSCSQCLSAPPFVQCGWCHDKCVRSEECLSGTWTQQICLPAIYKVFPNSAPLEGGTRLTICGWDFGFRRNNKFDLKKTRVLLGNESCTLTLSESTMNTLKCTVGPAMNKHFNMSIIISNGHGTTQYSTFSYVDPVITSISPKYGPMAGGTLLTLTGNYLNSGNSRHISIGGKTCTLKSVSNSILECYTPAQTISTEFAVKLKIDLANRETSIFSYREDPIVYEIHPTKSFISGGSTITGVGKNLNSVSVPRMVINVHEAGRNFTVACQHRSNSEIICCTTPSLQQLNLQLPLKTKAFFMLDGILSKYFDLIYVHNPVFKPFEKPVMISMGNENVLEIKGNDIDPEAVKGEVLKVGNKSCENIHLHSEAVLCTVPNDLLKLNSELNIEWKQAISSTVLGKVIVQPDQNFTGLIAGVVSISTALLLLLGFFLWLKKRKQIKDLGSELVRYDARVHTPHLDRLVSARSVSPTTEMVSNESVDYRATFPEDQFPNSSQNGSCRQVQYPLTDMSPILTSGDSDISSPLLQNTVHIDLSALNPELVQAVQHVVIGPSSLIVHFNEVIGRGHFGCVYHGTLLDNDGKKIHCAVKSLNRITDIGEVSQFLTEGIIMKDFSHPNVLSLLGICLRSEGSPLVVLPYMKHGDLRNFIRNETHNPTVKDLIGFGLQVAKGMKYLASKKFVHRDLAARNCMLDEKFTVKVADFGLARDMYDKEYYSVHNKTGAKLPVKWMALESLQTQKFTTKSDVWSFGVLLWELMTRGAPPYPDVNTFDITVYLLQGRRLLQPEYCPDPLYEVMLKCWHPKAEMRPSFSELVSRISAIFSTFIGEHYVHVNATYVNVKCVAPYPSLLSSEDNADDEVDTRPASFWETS
T2 sequence (P08581 25-932, change not shown): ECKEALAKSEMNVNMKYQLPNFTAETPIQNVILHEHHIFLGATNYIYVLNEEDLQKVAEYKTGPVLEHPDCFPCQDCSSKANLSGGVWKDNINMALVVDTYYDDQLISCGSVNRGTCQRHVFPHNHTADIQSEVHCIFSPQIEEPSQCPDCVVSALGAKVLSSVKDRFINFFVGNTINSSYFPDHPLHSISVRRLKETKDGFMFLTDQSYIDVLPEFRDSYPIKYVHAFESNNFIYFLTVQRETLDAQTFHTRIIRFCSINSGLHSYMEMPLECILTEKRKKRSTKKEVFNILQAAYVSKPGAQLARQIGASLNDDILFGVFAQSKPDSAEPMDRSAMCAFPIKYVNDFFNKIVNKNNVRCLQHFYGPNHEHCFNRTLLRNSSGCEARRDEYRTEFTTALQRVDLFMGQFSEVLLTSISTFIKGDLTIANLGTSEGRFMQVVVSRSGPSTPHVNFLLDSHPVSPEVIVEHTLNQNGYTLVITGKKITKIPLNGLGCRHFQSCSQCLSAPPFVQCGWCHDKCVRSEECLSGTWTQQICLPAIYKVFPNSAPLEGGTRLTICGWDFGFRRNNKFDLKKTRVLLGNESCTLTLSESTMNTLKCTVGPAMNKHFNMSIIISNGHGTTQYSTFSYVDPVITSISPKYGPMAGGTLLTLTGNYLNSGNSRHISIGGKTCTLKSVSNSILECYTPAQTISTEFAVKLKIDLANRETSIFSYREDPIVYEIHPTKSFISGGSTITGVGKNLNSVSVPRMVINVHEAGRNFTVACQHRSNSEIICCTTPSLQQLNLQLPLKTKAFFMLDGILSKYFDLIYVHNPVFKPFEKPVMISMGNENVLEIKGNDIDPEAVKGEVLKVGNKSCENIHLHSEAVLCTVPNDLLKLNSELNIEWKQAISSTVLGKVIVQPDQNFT

B1: Uni-1016-069-TE (other)
VH: QVQLVQSGAEVKKPGASVKVSCETSGYTFTSYGISWVRQAPGHGLEWMGWISAYNGYTNYAQKLQGRVTMTTDTSTSTAYMELRSLRSDDTAVYYCARDLRGTNYFDYWGQGTLVTVSS
VL: DIQMTQSPSSVSASVGDRVTITCRASQGISNWLAWFQHKPGKAPKLLIYAASSLLSGVPSRFSGSGSGTDFTLTISSLQPEDFATYYCQQANSFPITFGQGTRLEIK
notes: also called UniBody molecule of antibody 069
**Q.** What does the source list for B1?
**A.** EC50 [1]: 0.6 nM; fold change of EC50, UniBody molecule against IgG1 of the identical clone [2]: < 2 fold; EC50 [3]: 0.0301 µg/mL

B2: IgG1-1016-069-Hinge IgG3 (antibody, V domains shown)
VH: QVQLVQSGAEVKKPGASVKVSCETSGYTFTSYGISWVRQAPGHGLEWMGWISAYNGYTNYAQKLQGRVTMTTDTSTSTAYMELRSLRSDDTAVYYCARDLRGTNYFDYWGQGTLVTVSS
VL: DIQMTQSPSSVSASVGDRVTITCRASQGISNWLAWFQHKPGKAPKLLIYAASSLLSGVPSRFSGSGSGTDFTLTISSLQPEDFATYYCQQANSFPITFGQGTRLEIK
notes: also called IgG1 Hinge-IgG3 variant of 069
**Q.** With B2 as the binder, how does the EC50 [3] read?
**A.** 0.0142 µg/mL

B3: IgG1-1016-069-C220S (antibody, V domains shown)
VH: QVQLVQSGAEVKKPGASVKVSCETSGYTFTSYGISWVRQAPGHGLEWMGWISAYNGYTNYAQKLQGRVTMTTDTSTSTAYMELRSLRSDDTAVYYCARDLRGTNYFDYWGQGTLVTVSS
VL: DIQMTQSPSSVSASVGDRVTITCRASQGISNWLAWFQHKPGKAPKLLIYAASSLLSGVPSRFSGSGSGTDFTLTISSLQPEDFATYYCQQANSFPITFGQGTRLEIK
notes: human kappa; also called IgG1 C220S mutant of 069
**Q.** B3 was tested. Which EC50 [3] did it give?
**A.** 0.0156 µg/mL

B4: IgG2-1016-069 (antibody, V domains shown)
VH: QVQLVQSGAEVKKPGASVKVSCETSGYTFTSYGISWVRQAPGHGLEWMGWISAYNGYTNYAQKLQGRVTMTTDTSTSTAYMELRSLRSDDTAVYYCARDLRGTNYFDYWGQGTLVTVSS
VL: DIQMTQSPSSVSASVGDRVTITCRASQGISNWLAWFQHKPGKAPKLLIYAASSLLSGVPSRFSGSGSGTDFTLTISSLQPEDFATYYCQQANSFPITFGQGTRLEIK
notes: IgG2 format of clone 069; also called IgG2 backbone variant of 069
**Q.** For B4, which EC50 [3] is on record?
**A.** 0.0296 µg/mL

B5: IgG1-1016-069 TH7Δ6-9 (antibody, V domains shown)
VH: QVQLVQSGAEVKKPGASVKVSCETSGYTFTSYGISWVRQAPGHGLEWMGWISAYNGYTNYAQKLQGRVTMTTDTSTSTAYMELRSLRSDDTAVYYCARDLRGTNYFDYWGQGTLVTVSS
VL: DIQMTQSPSSVSASVGDRVTITCRASQGISNWLAWFQHKPGKAPKLLIYAASSLLSGVPSRFSGSGSGTDFTLTISSLQPEDFATYYCQQANSFPITFGQGTRLEIK
notes: human kappa; also called IgG1 TH7Δ6-9 mutant of 069
**Q.** B5 was tested. Which EC50 [3] did it give?
**A.** 0.0188 µg/mL

B6: IgG1-1016-069-ΔC220 (antibody, V domains shown)
VH: QVQLVQSGAEVKKPGASVKVSCETSGYTFTSYGISWVRQAPGHGLEWMGWISAYNGYTNYAQKLQGRVTMTTDTSTSTAYMELRSLRSDDTAVYYCARDLRGTNYFDYWGQGTLVTVSS
VL: DIQMTQSPSSVSASVGDRVTITCRASQGISNWLAWFQHKPGKAPKLLIYAASSLLSGVPSRFSGSGSGTDFTLTISSLQPEDFATYYCQQANSFPITFGQGTRLEIK
notes: human kappa; also called IgG1 ΔC220 mutant of 069
**Q.** Which EC50 [3] does the source give for B6 here?
**A.** 0.0189 µg/mL

B7: IgG1-1016-069-Hinge IgG2 (antibody, V domains shown)
VH: QVQLVQSGAEVKKPGASVKVSCETSGYTFTSYGISWVRQAPGHGLEWMGWISAYNGYTNYAQKLQGRVTMTTDTSTSTAYMELRSLRSDDTAVYYCARDLRGTNYFDYWGQGTLVTVSS
VL: DIQMTQSPSSVSASVGDRVTITCRASQGISNWLAWFQHKPGKAPKLLIYAASSLLSGVPSRFSGSGSGTDFTLTISSLQPEDFATYYCQQANSFPITFGQGTRLEIK
notes: human kappa; also called IgG1 Hinge-IgG2 variant of 069
**Q.** How did the EC50 [3] turn out when B7 was run?
**A.** 0.023 µg/mL

B8: Uni-IgG1-1016-069 (antibody, V domains shown)
VH: QVQLVQSGAEVKKPGASVKVSCETSGYTFTSYGISWVRQAPGHGLEWMGWISAYNGYTNYAQKLQGRVTMTTDTSTSTAYMELRSLRSDDTAVYYCARDLRGTNYFDYWGQGTLVTVSS
VL: DIQMTQSPSSVSASVGDRVTITCRASQGISNWLAWFQHKPGKAPKLLIYAASSLLSGVPSRFSGSGSGTDFTLTISSLQPEDFATYYCQQANSFPITFGQGTRLEIK
notes: human kappa; also called Hinge deleted IgG1 (Uni-IgG1) of 069; UniBody-IgG1
**Q.** How did the EC50 [3] turn out when B8 was run?
**A.** 0.0154 µg/mL

B9: UniBody molecule of antibody 181 (other)
VH: QVQLVQSGAEVKKPGASVKVSCKASGYTFTSYGISWVRQAPGQGLEWMGWISTYNGYTNYAQKLQGRVTMTTDTSTSTAYMELRSLRSDDTAVYYCARDLRGTAYFDYWGQGTLVTVSS
VL: DIQMTQSPSSVSASVGDRVTITCRASQGISNWLAWYQHKPGKAPKLLIYAASSLLSGVPSRFSGSGSGTDFTLTISSLQPEDFATYYCQQANSFPITFGQGTRLEIK
**Q.** What does the source list for B9?
**A.** EC50 [1]: 0.847 nM; fold change of EC50, UniBody molecule against IgG1 of the identical clone [2]: < 2 fold

B10: UniBody molecule of antibody 024 (other)
VH: EVQLLESGGGLVQPGGSLRLSCVASGFTFSSYAMSWVRQAPGKGLEWVSAISGSSGGSTYYVDSVKGRFTISRANSKNTLYLQMNSLRAEDTAVYYCAKDLDRGWMGYFGYWGQGTLVTVSS
VL: DIQMTQSPSSVSASVGDRVTITCRASQGISSWLAWYQHKPGKAPKLLIYAASSLQSGVPSRFSGSGSGTDFTLTISSLQPEDFATYYCQQANSFPTFGQGTRLEIK
**Q.** B10 was tested. Which EC50 [4] did it give?
**A.** 2.42 nM

**Q.** What about the “fold change of EC50, UniBody molecule against IgG1 of the identical clone” value (“fold change of EC50, UniBody molecule” for short) [2] of the same binder?
**A.** < 2 fold

B11: UniBody molecule of antibody 098 (other)
VH: QVQLVQSGAEVKKPGASVKVSCKASGYTFTNFGISWVRQAPGQGLEWMGWISAFNGHTDYSQKVQGRVTMTTDTSTSTAYMELRSLRSDDTAVFYCARSHYYGSGSPFDYWGQGTLVTVSS
VL: DIQMTQSPSSLSASVGDRVTITCRASQGISNWLAWYQQKPEKAPKSLIYAASSLQSGVPSRFSGSGSGTDFTLTISSLQPEDFATYYCHQYKSYPWTFGQGTKVEIK
**Q.** How did the EC50 [1] turn out when B11 was run?
**A.** 1.16 nM

**Q.** What about the “fold change of EC50, UniBody molecule” value [2] of the same binder?
**A.** < 2 fold

B12: Uni-1016-005 (other)
VH: QVQLVQSGAEVKKPGSSVKVSCKASGGTFSSYGFGWVRQAPGQGLEWMGRISPILGIANYAQMFQGRVTITADKSTSTAYMELSSLRSEDTAVYYCARDVGYDWPDTFDIWGQGTMVIVSS
VL: DIQMTQSPSSLSASVGDRVTITCRASQGISSWLAWYQQKPEKAPKSLIYAASSLQSGVPSRFSGGGSGTDFTLTISSLQPEDFATYYCQQYNSFPPTFGQGTKVEIK
notes: also called UniBody molecule of antibody 005
**Q.** What does the source list for B12?
**A.** EC50 [5]: 5.8 nM; fold change of EC50, UniBody molecule against IgG1 of the identical clone [2]: > 2 fold

B13: UniBody molecule of antibody 008 (other)
VH: EVQLVQSGAEVKKPGESLKISCKGSGYSFTSYWIGWVRQMPGKGLEWMGIIYPGDSETRYSPSFQGQVTISADKSISTAYLQWSSLKASDTAMYYCARQEITGEFDYWGQGTLVTVSS
VL: AIQLTQSPSSLSASVGDRVTITCRASQGISSALAWYQQKPGKAPKLLIYDASSLESGVPSRFSGSGSGTDFTLTISSLQPEDFATYYCQQFNSYPRTFGQGTKVEIK
**Q.** With B13 as the binder, how does the EC50 [5] read?
**A.** 1.85 nM

**Q.** What about the “fold change of EC50, UniBody molecule” value [2] of the same binder?
**A.** > 2 fold

B14: UniBody molecule of antibody 035 (other)
VH: EVQLVQSGAEVKKPGESLKISCKGSGYSFTSYWIGWVRQMPGKGLEWMGIIYPGDSDTRYSPSFQGQVTISADKSISTAYLQWNSLKASDTAMYYCARQEITGEFDYWGQGTLVTVSS
VL: AIQLTQSPSSLSASVGDRVTITCRASQGISSALAWYQQKPGKAPKLLIYDASSLESGVPSRFSGSGSGTDFTLTISSLQPEDFATYYCQQFNSYPMYTFGQGTKLEIK
**Q.** How did the EC50 [4] turn out when B14 was run?
**A.** 9.32 nM

**Q.** And the “fold change of EC50, UniBody molecule” value [2]?
**A.** > 2 fold

B15: Uni-1016-045-TE (other)
VH: EVQLLESGGGLVQPGGSLRLSCAASGFTFSSYAMSWVRQAPGKGLEWVSVISGSGGITYYADSVKGRFTISRDNSKNTLYLQMNSLRAEDTAVYYCARDRGWGSDYWGQGTLVTVSS
VL: EIVLTQSPATLSLSPGERATLSCRASQSVSSYLAWYQQKPGQAPRLLIYDASNRATGIPARFSGSGSGTDFTLTISSLEPEDFAVYYCQQRSNWPFTFGPGTKVDIK
notes: also called UniBody molecule of antibody 045
**Q.** For B15, which EC50 [4] is on record?
**A.** 12.2 nM

**Q.** And the “fold change of EC50, UniBody molecule” value [2]?
**A.** > 2 fold
